Measured values from article PMC9239104, “Scaffolding Protein GspB/OutB Facilitates Assembly of the Dickeya dadantii Type 2 Secretion System by Anchoring the Outer Membrane Secretin Pore to the Inner Membrane and to the Peptidoglycan Cell Wall” (mBio, 2022).

T1: OutD N0-N1-N2 domains (residues 1 to 258 of signal peptide-less OutD), purified (Dickeya dadantii, UniProt Q01565 28-285)
T1 construct: secretin OutD (GspD) of Dickeya dadantii, N0, N1 and N2 domains, residues A1 to V258; numbers count on: the mature protein
T1 sequence: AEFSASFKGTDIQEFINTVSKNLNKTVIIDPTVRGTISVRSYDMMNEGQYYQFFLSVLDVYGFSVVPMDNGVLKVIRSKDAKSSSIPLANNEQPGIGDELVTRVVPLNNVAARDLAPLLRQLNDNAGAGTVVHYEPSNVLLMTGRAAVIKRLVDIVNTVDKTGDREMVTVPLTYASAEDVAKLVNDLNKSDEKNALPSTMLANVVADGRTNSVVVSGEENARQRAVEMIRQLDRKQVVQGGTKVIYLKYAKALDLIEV

B1: OutB HR domain (residues P112 to K220), purified (domain or fragment)
chain: PAKLVTGWQTAKPGELPYIAFSAHVYTSAPDKRSVTLNGERYREGDSPYQGLVIEQIEQDMVIFSFNGEPFILDSLQDWPGGKPGDDAAQGNEQEPTSKPEQTVRTTKK
notes: OutB (GspB) of Dickeya dadantii, conserved periplasmic domain, residues 112 to 220; uniformly 15N-labelled where it was the observed protein; the NMR methods speak of residues 112 to 193, the results and legends of 112 to 220; also called OutB^112–220; 15N-labeled OutB HR domain; source: E. coli BL21(DE3), purified (glutathione Sepharose, on-column PreScission cleavage, Superdex S200); not shown: …
B2: OutD N0 domain (residues 1 to 85 of signal peptide-less OutD), purified (domain or fragment)
chain: AEFSASFKGTDIQEFINTVSKNLNKTVIIDPTVRGTISVRSYDMMNEGQYYQFFLSVLDVYGFSVVPMDNGVLKVIRSKDAKSSS
notes: secretin OutD (GspD) of Dickeya dadantii, N0 domain, residues A1 to S85; numbers count on: the mature protein; 15N-labelled in the reciprocal experiment

What was measured:
[1] = biological target: OutD N0 domain (residues 1 to 85 of signal peptide-less OutD), purified (Dickeya dadantii) (UniProt Q01565); test: NMR titration; competition: 15N OutB HR 40 μM, unlabelled OutD N0 60 μM, unlabelled OutC HR 120, 240 and 360 μM; HSQC chemical shifts
[2] = biological target: T1, OutD N0-N1-N2 domains (residues 1 to …); test: NMR titration; 1H-15N HSQC of a 15N-labelled domain alone or with the unlabelled partner; each protein 200 μM; 15°C, 20 mM Tris-HCl pH 7.0, 10% D2O; conditions: both partners purified
[3] = biological target: B1; test: NMR titration; competition: 15N OutB HR 40 μM, unlabelled OutD N0 60 μM, unlabelled OutC HR 120, 240 and 360 μM; HSQC chemical shifts; conditions: both partners purified

OutC HR domain (residues A78 to S158) (domain or fragment)
Kd [1]: 1000 µM

B1
binding result [2]: binds

B2
Kd [3]: ~10 µM
